Source: paper PMC12865133, “Macrocyclic Molecular Glues for the 14‐3‐3/ChREBP Interaction: Affinity and Cooperativity in an Inverse Relationship” (Angewandte Chemie (International Ed. in English), 2025)

Legend:
Experiment in all cases: fluorescence polarisation; two-dimensional fluorescence anisotropy; 14-3-3β titrated to FITC-labeled F1, F2, F3, F4 or pepD (10 nM) with varying concentrations of ChREBP peptide; fitted to a thermodynamic cooperativity model with KD II fixed at 1.5 µM; n = 2
Conditions in all cases: both partners purified
FITC-labeled pepD = FITC-labeled pepD (FITC label (position not given); phosphoserine (pSer); 4-nitrophenylalanine Nph(+1) and Nph(+4), counting from pSer)
macrocycle F4 = biological target: T1, macrocycle F4 (not fully specified; fluorescein isothiocyanate (FITC) on the side chain of the first lysine; β-alanine after it; phosphoserine; triazole from azido phenylalanine (replacing Nph(+1)) cyclised to the …)
T1 chain: SFSXFKXK

macrocycle F1 = biological target: T2, macrocycle F1 (not fully specified; fluorescein isothiocyanate (FITC) on the side chain of the first lysine; β-alanine after it; phosphoserine; triazole from azido phenylalanine (replacing Nph(+1)) cyclised to the …)
T2 chain: SFSXFKXK

macrocycle F3 = biological target: T3, macrocycle F3 (not fully specified; fluorescein isothiocyanate (FITC) on the side chain of the first lysine; β-alanine after it; phosphoserine; triazole from azido phenylalanine (replacing Nph(+1)) cyclised to the …)
T3 chain: SFSXFKXK

cooperativity factor α with ChREBP peptide (FITC-labeled pepD): 38 ± 2
cooperativity factor α with ChREBP peptide (macrocycle F4): 42 ± 1
cooperativity factor α with ChREBP peptide (macrocycle F1): 339 ± 35
cooperativity factor α with ChREBP peptide (macrocycle F3): 12 ± 1
B1: 14-3-3β (natural protein, UniProt P31946 1-246, looked up)
chain: MTMDKSELVQKAKLAEQAERYDDMAAAMKAVTEQGHELSNEERNLLSVAYKNVVGARRSSWRVISSIEQKTERNEKKQQMGKEYREKIEAELQDICNDVLELLDKYLIPNATQPESKVFYLKMKGDYFRYLSEVASGDNKQTTVSNSQQAYQEAFEISKKEMQPTHPIRLGLALNFSVFYYEILNSPEKACSLAKTAFDEAIAELDTLNEESYKDSTLIMQLLRDNLTLWTSENQGDEGDAGEGEN
notes: 14-3-3 protein, beta isoform; also called 14-3-3 protein
